Experiments:
[1] = hemagglutinating inhibition test with sugars (sugar binding specificity); assay type: cell-based
Text: The sugar binding specificity of lectin also can be confirmed by using erythrocytes that can be specifically agglutinated by the lectin to investigate the sugar type that may inhibit the agglutination of the erythrocytes and the concentration thereof.
Various monosaccharides, oligosaccharides, and polysaccharides shown in Table 2 and glycoproteins shown in Table 3 were subjected to hemagglutinating inhibition test to evaluate PTL of Example 1 and the SRL of Example 2 with regard to the sugar binding specificity.
On a 96 well U-bottom microtiter plate, double dilution series of 10 μl of monosaccharide, oligosaccharide, polysaccharide, and glycoprotein solutions were prepared. Then, lectin solution adjusted in advance to have titer 4 was added in an amount of 10 μl to the respective wells. Then, the plate was subjected to a still-standing at a room temperature for one hour for sensitization. Then, 10 μl of 4%-red blood cell suspension was added to the respective wells and the plate was further subjected to a still-standing at a room temperature for one hour. […] The lowest concentration showing the inhibition was assumed as the minimum inhibition concentration. The lower the minimum inhibition concentration is, the higher the specificity to lectin is.
For comparison, the sugar binding specificity was evaluated using the following commercially-available lectins: Comparison Example 1: AAL (SEIKAGAKU BIOBUSINESS CORPORATION—J-OIL MILLS, Inc.), Comparison Example 2: AOL (TOKYO CHEMICAL INDUSTRY CO., LTD.—Gekkeikan Sake Company, Ltd.), Comparison Example 3: LCA (SEIKAGAKU BIOBUSINESS CORPORATION—J-OIL MILLS, Inc.), and Comparison Example 4: PSA (SEIKAGAKU BIOBUSINESS CORPORATION—J-OIL MILLS, Inc.).

[2] = frontal affinity chromatography (FAC), association constant to PA sugar chains having α1→6 L-fucose; assay type: binding; details: 25 degrees C.
Protocol: The following section will describe a method of calculating an association constant by frontal affinity chromatography (FAC). This method is based on the following principle. […] Then, the elution front end (front) is observed immediately. When there is an affinity with lectin, the elution of the sugar chain is delayed.
The preparation of a lectin column used in the apparatus is performed in the method as described below. 1. Purified lectin is dissolved in 0.1 to 0.2M of NaHCO3 buffer solution (pH 8.3 to 8.5). 2. The lectin is immobilized, via a lectin primary amino group, a carrier such as NHS activated sepharose. 3. Then, the lectin is blocked by Tris buffer solution including primary amine or ethanolamine for example. 4. Lectin-sepharose is suspended in 10 mM Tris buffer, including 0.8% of NaCl (pH 7.4, TBS). Then, lectin immobilized resin is filled in a miniature column (φ2 mm×10 mm, 31.4 μl). 5. The miniature column in which the lectin immobilized resin is filled is protected by a holder and the lectin column is connected to an FAC automatic analysis apparatus (FAC-1, SHIMADZU CORPORATION).
Then, the elution of the PA sugar chain from the column is detected by a fluorescence detector (excitation wavelength/fluorescence wavelength: 310 nm/380 nm).
Based on the detection data, by using the elution front end (Vo) of the sugar chain (PA rhamnose) not interacting with lectin as a reference, the delay (V−Vo) of the elution front end (V) of a sugar chain interacting with lectin is calculated as an interaction strength. Then, based on the following FAC criteria expressions, the association constant (Ka) between the sugar chain and lectin is calculated based on V−Vo and Bt. If the interaction strength (V−Vo value) and the association constant are higher, a higher affinity is caused between lectin and an L-fucose α1→6 sugar chain.
[In the formula, A means substance used for the elution, Ao means the initial concentration of the substance A, B means a immobilized ligand, V means the elution volume, Vo means the elution front end volume of the substance not interacting with the immobilized ligand B at all, Bt means an effective ligand amount, Kd means a dissociation constant (an inverse of the association constant)].
Pyridylaminated (PA) sugar chains shown in FIG. 1 and FIG. 2 were used to frontal affinity chromatography (FAC) analysis. PA sugars were purchased from TAKARA BIO INC., SEIKAGAKU BIOBUSINESS CORPORATION, and Masuda Chemical Industries co., LTD. PA sugar were also obtained by pyridylaminating, by GlycoTAG®(TAKARA BIO INC.), an unlabeled sugar chain or a sugar chain obtained by subjecting a sugar chain to enzyme digestion for example.
Lectin was dissolved in 0.2 M NaHCO3 buffer solution (pH 8.3) including 0.5 M NaCl and coupled to the NHS-activated sepharose (GE Healthcare Bioscience) by following the manufacturer's instructions. Then, lectin immobilized sepharose was suspended in 10 mM Tris buffer (pH 7.4, TBS) including […] and the resultant matter was filled in a miniature column (φ2 mm×10 mm, 31.4 μl).
Frontal affinity chromatography was performed using FAC automatic analysis apparatus (FAC-1, SHIMADZU CORPORATION). In particular, the above-prepared lectin column was inserted to a stainless steel holder and the holder was connected to FAC-1 apparatus. The flow rate and the column temperature were maintained at 0.125 ml/min and 25 degrees C., respectively. After the miniature column was equilibrated by the TBS, an excessive volume (0.5 ml to 4 ml) of a PA sugar chain (3.75 nM or 7.5 nM) was continuously inputted to the column using an automatic sampling apparatus.
The fluorescent strength of the eluate of the PA sugar (excitation wavelength of 310 nm and fluorescence wavelength of 380 nm) was monitored to measure the interaction strength [a difference of the front end eluate to the standard oligosaccharide (PA rhamnose): V−V0]. […]

[3] = inhibitor: N-Acetylneuraminic acid
[4] = inhibitor: N-acetylgalactosamine
[5] = inhibitor: N-glycolylneuraminic acid

Row | Molecule | minimum inhibition concentration of hemagglutination ([1]; inhibitor: Fructose) [mM] | minimum inhibition concentration of hemagglutination ([1]; inhibitor: Galactose) [mM] | minimum inhibition concentration of hemagglutination ([1]; inhibitor: Glucose) [mM] | minimum inhibition concentration of hemagglutination ([1]; inhibitor: L-fucose) [mM] | minimum inhibition concentration of hemagglutination ([1]; inhibitor: Lactose) [mM] | minimum inhibition concentration of hemagglutination ([1]; inhibitor: Maltose) [mM] | minimum inhibition concentration of hemagglutination ([1]; inhibitor: Mannose) [mM] | minimum inhibition concentration of hemagglutination ([1]; inhibitor: Melibiose) [mM] | minimum inhibition concentration of hemagglutination ([1]; inhibitor: Metyl α-mannoside) [mM] | minimum inhibition concentration of hemagglutination [1, 3] [mM] | minimum inhibition concentration of hemagglutination [1, 4] [mM] | minimum inhibition concentration of hemagglutination ([1]; inhibitor: N-acetylglucosamine) [mM] | minimum inhibition concentration of hemagglutination [1, 5] [mM] | minimum inhibition concentration of hemagglutination ([1]; inhibitor: Raffinose) [mM] | minimum inhibition concentration of hemagglutination ([1]; inhibitor: Rhamnose) [mM] | minimum inhibition concentration of hemagglutination ([1]; inhibitor: Serial lactose) [mM] | minimum inhibition concentration of hemagglutination ([1]; inhibitor: Sucrose) [mM] | minimum inhibition concentration of hemagglutination ([1]; inhibitor: Xylose) [mM] | association constant Ka ([2]; Sugar chain No. 015) [M⁻¹] | association constant Ka ([2]; Sugar chain No. 201) [M⁻¹] | also measured
1 | Lens culinaris agglutinin (protein) chain 1: TETTSFSITKFSPDQKNLIFQGDGYTTKGKLTLTKAVKSTVGRALYSTPIHIWDRDTGNVANFVTSFTFVIDAPSSYNVADEFTFFIAPVDTKPQTGGGYLGVFNSKEYDKTSQTVAVEFDTFYNAAWDPSNKERHIGIDVNSIKSVNTKSWNLQNGERANVVIAFNAATNVLTVTLTYP chain 2: VTSYTLNEVVPLKDVVPEWVRIGFSATTGAEFAAHEVHSWSFHSELGGTSSS | >100 | >100 | >100 | >100 | >6 | 100 | 50 | >100 | 50 | >100 | >100 | >100 | >100 | >100 | >100 | >6 | >100 | >100 | 56000 | 500000 | association constant Ka ([2]; Sugar chain No. 202): 110000 M⁻¹; association constant Ka ([2]; Sugar chain No. 203): 73000 M⁻¹; association constant Ka ([2]; Sugar chain No. 401): 42000 M⁻¹; association constant Ka ([2]; Sugar chain No. 402): 59000 M⁻¹; association constant Ka ([2]; Sugar chain No. 403): 99000 M⁻¹; association constant Ka ([2]; Sugar chain No. 404): 58000 M⁻¹; association constant Ka ([2]; Sugar chain No. 405): 47000 M⁻¹; association constant Ka ([2]; Sugar chain No. 406): 18000 M⁻¹; association constant Ka ([2]; Sugar chain No. 407): 1000 M⁻¹; association constant Ka ([2]; Sugar chain No. 410): <1000 M⁻¹; association constant Ka ([2]; Sugar chain No. 413): <1000 M⁻¹; association constant Ka ([2]; Sugar chain No. 418): <1000 M⁻¹; association constant Ka ([2]; Sugar chain No. 601): 30000 M⁻¹; association constant Ka ([2]; Sugar chain No. 602): 24000 M⁻¹
2 | Pisum sativum agglutinin (protein) TETTSFLITKFSPDQQNLIFQGDGYTTKEKLTLTKAVKNTVGRALYSSPIHIWDRETGNVANFVTSFTFVINAPNSYNVADGFTFFIAPVDTKPQTGGGYLGVFNSAEYDKTTQTVAVEFDTFYNAAWDPSNRDRHIGIDVNSIKSVNTKSWKLQNGEEANVVIAFNAATNVLTVSLTYPNSLEEENVTSYTLSDVVSLKDVVPEWVRIGFSATTGAEYAAHEVLSWSFHSELSGTSSSKQAADA | >100 | >100 | >100 | >100 | >6 | >100 | 50 | >100 | 50 | >100 | >100 | >100 | >100 | >100 | >100 | >6 | >100 | >100 | 120000 | 100000 | association constant Ka ([2]; Sugar chain No. 202): 44000 M⁻¹; association constant Ka ([2]; Sugar chain No. 203): 25000 M⁻¹; association constant Ka ([2]; Sugar chain No. 401): 92000 M⁻¹; association constant Ka ([2]; Sugar chain No. 402): 48000 M⁻¹; association constant Ka ([2]; Sugar chain No. 403): 38000 M⁻¹; association constant Ka ([2]; Sugar chain No. 404): 45000 M⁻¹; association constant Ka ([2]; Sugar chain No. 405): 36000 M⁻¹; association constant Ka ([2]; Sugar chain No. 406): 13000 M⁻¹; association constant Ka ([2]; Sugar chain No. 407): <1000 M⁻¹; association constant Ka ([2]; Sugar chain No. 410): <1000 M⁻¹; association constant Ka ([2]; Sugar chain No. 413): <1000 M⁻¹; association constant Ka ([2]; Sugar chain No. 418): <1000 M⁻¹; association constant Ka ([2]; Sugar chain No. 601): 31000 M⁻¹; association constant Ka ([2]; Sugar chain No. 602): 29000 M⁻¹
